Test results: article doi:10.1101/2021.07.05.451109 (bioRxiv, 2021)

Key:
[1] = molecular target: NLuc/CXCR4 (genome-edited, HeLa cells) (human (endogenous in HeLa), UniProt P61073 1-352); assay: FRET or BRET
[2] = molecular target: NLuc/CXCR4 (genome-edited, HEK293 cells) (human (endogenous in HEK293), UniProt P61073 1-352); assay: FRET or BRET
NLuc/CXCR4 (genome-edited, HEK293 cells), sequence (P61073 whole entry): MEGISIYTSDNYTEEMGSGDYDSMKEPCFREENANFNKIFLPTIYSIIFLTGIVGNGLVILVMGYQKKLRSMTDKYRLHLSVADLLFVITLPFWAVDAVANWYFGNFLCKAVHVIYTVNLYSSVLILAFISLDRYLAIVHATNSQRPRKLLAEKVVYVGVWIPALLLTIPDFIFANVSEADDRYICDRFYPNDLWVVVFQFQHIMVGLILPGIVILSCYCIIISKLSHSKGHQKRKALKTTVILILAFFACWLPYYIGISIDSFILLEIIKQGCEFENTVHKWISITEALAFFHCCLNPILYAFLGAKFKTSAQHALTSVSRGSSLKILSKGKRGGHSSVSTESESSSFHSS

NLuc/CXCR4 (genome-edited, HeLa cells), sequence (P61073 whole entry): as above

pKi [1]: 6.15 ± 0.27
pKi [2]: 6.14 ± 0.3
B1: 24Leu-CXCL17 (ligand)
chain: LNPGVARGHRDRGQASRRWLQEGGQECECKDWFLRAPRRKFMTVSGLPKKQCPCDHFKGNVKKTRHQRHHRKPNKHSRACQQFLKQCQLRSFALPL
